Target: the molecule itself
Test: crystal structure

B1: dCaprin fragment (residues 187-309), dimerization domain of Drosophila melanogaster Caprin (domain or fragment)
chain: GPSSPSRKDNLAKTIAETAKIREVLIIQNVLNCFNDDQVRSDFLNGENGAKKLENTELELLEKFFIETQTRRPETADDVSFIATAQKSAELFYSTINARPKSFGEVSFEKLRSLFQQIQDSGYLDKYYL
modifications: Se-Met labelled (L-seleno-methionine in place of methionine) in the crystal used for the structure
B1 was tested. Which “stoichiometry N” value did it give?
The value was 2.
